Key:
Test in all cases: complementary split luciferase
Conditions in all cases: n = 5; parent: est. 1.0; read off a plot
[1] = biological target: ARAF(DDEE/L358M) fused to Nluc or Cluc (UniProt P10398)
[2] = biological target: ARAF(DDEE/L358M/APE) fused to Nluc or Cluc (UniProt P10398)
[3] = biological target: ARAF(DDEE/L358M/R362H/APE) fused to Nluc or Cluc (UniProt P10398)
[4] = biological target: ARAF(DDEE/L358M/R362H) fused to Nluc or Cluc (UniProt P10398)

Substance “ARAF (wild type) fused to Nluc or Cluc (from UniProt P10398) DGEE; L358M” has a response [1] of 3.3.
“ARAF (wild type) fused to Nluc or Cluc (from UniProt P10398) DGEE; L358M; APE” gave a response [2] of 5.4.
In the case of “ARAF (wild type) fused to Nluc or Cluc (from UniProt P10398) DGEE; L358M; APE; R362H”, the response [3] is reported as 3.6.
For “ARAF (wild type) fused to Nluc or Cluc (from UniProt P10398) DGEE; L358M; R362H”, the response [4] was 1.1.

— article PMC6202329
